From patent CN116693676A come the findings set out here.

Assay [1] concerns the target 肺炎支原体天然抗原(购自Microbix) (Mycoplasma pneumoniae). Put plainly: indirect ELISA, antigen coated at 2 ug/ml, antibody 3.75 ng/ml.
The target is the same in assay [2]. Briefly: indirect ELISA, antigen coated at 2 ug/ml, antibody 0.94 ng/ml.
Assay [3] shares this target. Briefly: indirect ELISA, antigen coated at 2 ug/ml, antibody 1.88 ng/ml.
The target is the same in assay [4]. Briefly: indirect ELISA, antigen coated at 2 ug/ml, antibody 15 ng/ml.
The target is the same in assay [5]. Put plainly: indirect ELISA, antigen coated at 2 ug/ml, antibody 0 ng/ml (blank).
Assay [6] shares this target. Put plainly: indirect ELISA, antigen coated at 2 ug/ml, antibody 7.5 ng/ml.

Numbering of substitutions follows the chain as printed.

对照 (antibody): the OD450 (参考630nm) in assay [1] came to 0.403 OD; in assay [2], 0.118 OD; in assay [3] it was 0.212 OD; in assay [4], 1.32 OD; in assay [5], 0.015 OD; in assay [6] it was 0.629 OD.

B1: Anti-MP-22A9mut1 (antibody, mouse IgG1, kappa, V domains shown)
VH: QAYLQQSGAELVRSGASVKMSCKASGYTFTTYNMHWVKQTPGQGLEWIGYVHPGYGITYYSQKFKGKATLTADTSSSTAYMILSSLTSEDSAVYFCTRSYYGYSYWFFDVWGAGTTVTVSS
VL: NIVMTQSPKSVSMSVGERVTLNCKASENVGSYVAWYQQKPDRSPKLLIHGASNRYTGVPDRFTGSGSTTDFTLTISSVQAEDLADYHCGQTYNYPYTFGGGTKLEIKR
Regarding B1, the OD450 (参考630nm) turned out to be 0.619 OD in assay [1]; 0.205 OD in assay [2]; 0.391 OD in assay [3]; 1.92 OD in assay [4]; 0.013 OD in assay [5]; 1.39 OD in assay [6].

B2: Anti-MP-22A9mut3 (antibody, mouse IgG1, kappa, V domains shown)
VH: B1 VH with L70I, I82L
VL: B1 VL
In the case of B2, the OD450 (参考630nm) in assay [1] was 0.906 OD; in assay [2], 0.359 OD; in assay [3], 0.512 OD; in assay [4], 2.16 OD; in assay [5] it was 0.016 OD; in assay [6], 1.67 OD.

B3: Anti-MP-22A9mut5 (antibody, mouse IgG1, kappa, V domains shown)
VH: B1 VH with I82L, L86I
VL: B1 VL with L73I
Take B3: the OD450 (参考630nm) in assay [1] worked out at 0.814 OD; in assay [2], 0.315 OD; in assay [3], 0.536 OD; in assay [4] it was 2.03 OD; in assay [5], 0.011 OD; in assay [6], 1.68 OD.

B4: Anti-MP-22A9mut6 (antibody, mouse IgG1, kappa, V domains shown)
VH: B1 VH with I82L, L86I
VL: B1 VL with I75L
Take B4: the OD450 (参考630nm) in assay [1] came to 0.627 OD; in assay [2] it was 0.207 OD; in assay [3], 0.339 OD; in assay [4], 2.01 OD; in assay [5] it was 0.011 OD; in assay [6], 1.42 OD.

B5: Anti-MP-22A9mut2 (antibody, mouse IgG1, kappa, V domains shown)
VH: B1 VH with I82L
VL: B1 VL
As to B5, the OD450 (参考630nm) in assay [1] was 0.899 OD; in assay [2], 0.386 OD; in assay [3] it was 0.534 OD; in assay [4], 2.23 OD; in assay [5], 0.021 OD; in assay [6], 1.6 OD.

B6: Anti-MP-22A9mut4 (antibody, mouse IgG1, kappa, V domains shown)
VH: B1 VH with I82L, L86I
VL: B1 VL
Regarding B6, the OD450 (参考630nm) in assay [1] stood at 0.758 OD; in assay [2], 0.207 OD; in assay [3] it was 0.401 OD; in assay [4] it was 1.98 OD; in assay [5], 0.012 OD; in assay [6], 1.47 OD.
